Assay results published in article PMC10053369, “Recombinant Analogs of Sea Anemone Kunitz-Type Peptides Influence P2X7 Receptor Activity in Neuro-2a Cells” (Marine Drugs, 2023).
Positions of bridges follow the written chain, without caps; N, C: chain ends. No end group written: not given here.

Assays:
Neuro-2a cells [1] = test: [Ca2+]i in Ca2+-free medium (Fluo-8 AM); type: cell-based, mouse; conditions: for [Ca2+]i in Ca-free medium: ionomycin 10 μM in the presence of ATP 1 mM, or BHQ 50 μM, n = 6
Protocol: (§1) Neuro-2a cells were seeded in 96-well plates at a density of 4 × 10^4 cells/well and incubated in DMEM for 24 h at 37 °C, 5% CO2. Then the cells were washed twice with culture medium and loaded with 5 μM Fluo-8 AM (Abcam, Cambridge, UK) dye and 1 μM Pluronic® F-127 (Sigma-Aldrich, St. Louis, MO, USA), and incubated for 40 min at 37 °C in HBSS: 140 mM NaCl, 5 mM KCl, 0.8 mM MgCl2, 2 mM CaCl2, 10 mM glucose, 10 mM HEPES, pH 7.4. Then the cells were washed two times with the same solution but without the fluorescent dye and treated with the studied peptides for 30 min at RT in the dark. In some experiments Ca^2+-free medium was used: 140 mM NaCl, 5 mM KCl, 0.8 mM MgCl2, 10 mM glucose, 10 mM HEPES, 5 mM EGTA, pH 7.4. ATP (1 mM final concentration) was added using a microinjector (20 μL/well) 10 s later the baseline recording and the readings were taken up to 50 s in 1 s intervals. The standard P2X7 inhibitor, A438079 (Sigma-Aldrich, St. Louis, MO, USA), was used as inhibitory control. Ionomycin (Sigma-Aldrich, St. Louis, MO, USA) and BHQ were used to generate a generic calcium signal in cells. 2,5,-di(t-butyl) hydroquinone (BHQ) was synthesized and kindly provided by Dr. Polonik S.N. (PIBOC FEBRAS). Fluo-8 was excited at 485 nm, and the emission at 520 nm was measured with a PHERAstar®FS plate reader (BMG LABTECH, Ortenberg, Germany). The data were processed by MARS Data Analysis v. 3.01R2 (BMG Labtech, Ortenberg, Germany). Mean values and standard error of peak height calcium were calculated.
The following supporting information can be downloaded at: https://www.mdpi.com/article/10.3390/md21030192/s1, Figure S1: The RP-HPLC elution profiles of Kunitz peptides: HCRG1 (a), HCRG2 (b), and HCRG7 (c), on a Jupiter C4 column (Phenomenex, USA), equilibrated by 0.1% TFA, in a gradient of acetonitrile concentration (0–70%) for 70 min at 1.5 mL/min. MALDI mass spectra of the average molecular weight of peptides are shown in the insert. Black solid lines accentuate fractions from which the peptides were isolated. Figure S2: 1H NMR spectra of HCRG1 (a) and HCRG7 (b). Figure S3. […]

[2] = molecular target: T1, hP2X7 (47-334 a.a., extracellular domain, 36.8 kDa) (human) (UniProt Q99572)
T1 sequence: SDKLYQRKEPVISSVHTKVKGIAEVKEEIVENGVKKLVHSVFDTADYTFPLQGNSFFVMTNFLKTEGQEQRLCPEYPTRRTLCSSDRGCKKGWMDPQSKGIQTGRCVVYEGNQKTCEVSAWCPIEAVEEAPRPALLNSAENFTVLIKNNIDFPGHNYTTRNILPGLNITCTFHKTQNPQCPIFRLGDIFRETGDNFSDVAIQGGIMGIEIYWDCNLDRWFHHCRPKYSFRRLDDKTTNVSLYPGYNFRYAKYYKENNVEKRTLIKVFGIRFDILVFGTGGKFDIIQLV

[3] = molecular target: T1, hP2X7 (47-334 a.a., extracellular domain, 36.8 kDa) (human); remark: listed apart in the source
[4] = molecular target: T2, hP2X7 (47–334 a.a., extracellular domain, 36.8 kDa) (Homo sapiens, UniProt Q99572); test: Surface plasmon resonance (Biacore 3000); type: binding; conditions: model: binding 1:1 (Langmuir), 25 °C, HBS-N pH 7.4, n = 3
T2 construct: hP2X7 (47–334 a.a., extracellular domain, 36.8 kDa); purchased Abbexa LTD, Cambridge, UK abx167020
T2 sequence (Q99572 47-334): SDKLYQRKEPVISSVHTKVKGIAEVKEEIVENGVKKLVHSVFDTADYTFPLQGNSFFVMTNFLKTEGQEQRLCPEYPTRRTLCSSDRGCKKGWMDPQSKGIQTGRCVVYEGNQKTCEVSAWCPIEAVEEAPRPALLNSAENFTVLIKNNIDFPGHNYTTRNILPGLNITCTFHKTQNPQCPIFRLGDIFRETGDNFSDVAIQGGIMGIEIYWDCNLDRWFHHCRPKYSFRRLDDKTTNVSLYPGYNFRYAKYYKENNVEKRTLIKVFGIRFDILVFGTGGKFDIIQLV
Protocol: SPR analysis was performed at 25 °C using a Biacore® 3000 optical biosensor (GE Healthcare, Chicago, IL, USA) and CM5 sensor chips. HBS-N (10 mM HEPES, 150 mM NaCl, pH 7.4) (Cytiva, Chicago, IL, USA) was used as a working buffer for the immobilization of hP2X7 (47–334 a.a., extracellular domain, 36.8 kDa) (abx167020 Abbexa LTD, Cambridge, UK). The carboxyl groups of the dextran biosensor chip were activated for 5 min by introducing a 1:1 mixture of 0.2 M 1-ethyl-3-(3-dimethylaminopropyl)carbodiimide hydrochloride (EDC) and 0.05 M N-hydroxysuccinimide (NHS) at a rate of 5 µL/min followed by a 1 min wash with HBS-N buffer at the same flow rate. Next, hP2X7 (15 μg/mL) in 10 mM sodium acetate (pH 5.0) was injected into the working channel of the biosensor for 10 min at a flow rate of 5 μL/min. The final level of immobilization was 12300 RU (12.3 ng of protein). The control channel without immobilized P2X7R was used to correct the effects of the nonspecific binding of analytes to the chip surface.
Lyophilized peptides were prepared as 100 μM stock solutions in HBS-N buffer. Experimental peptide samples were prepared in the range of 5–100 μM. The samples were injected through the channels of the biosensor (working and reference) at a flow rate of 10 μL/min for 6 min. The dissociation of the formed peptide/P2X7 complexes was recorded for at least 6 min from the moment of injection at the same flow rate after the injection of the sample. After each cycle of the biosensor, the bound analyte was removed by double injection of the regenerating solution (2 M NaCl, 1% CHAPS) at a flow rate of 30 μL/min for 30 s.
SPR sensorgrams were processed in Biacore 3000 Evaluation Software v.1.0 (GE Healthcare, Chicago, IL, USA) and BIAevaluation Software v. 4.1.1 (GE Healthcare, Chicago, IL, USA) using “1:1 binding (Langmuir)” and “two-state binding (conformational change)” data processing models.
The 1:1 (Langmuir) binding model is a 1:1 interaction model between a compound (C) and an immobilized protein (P) and is equivalent to the Langmuir isotherm for surface adsorption: C + P ↔ CP.
The two-state binding (conformational change) model describes the 1:1 binding of a compound (C) to an immobilized protein (P) followed by a conformational change in the complex (CP ↔ CP*). It is assumed that the conformationally changed complex can dissociate only by the reverse conformational change: C + P ↔ CP ↔ CP*. The final kinetic parameters were obtained from the models that best agree with the experimental curves for the minimum of the obtained value of chi2. The equations describing the models used are as follows: • (1) 1:1 (Langmuir) binding: Kd = koff/kon, where Kd is the equilibrium dissociation constant, koff is the dissociation rate constant, kon is the association rate constant. • (2) Reaction of two states (with conformational change): Kd = koff1/kon1 × (1 + kon2/koff2) − 1, where Kd is the equilibrium dissociation constant, koff1 is the dissociation rate constant, kon1 is the association rate constant, kon2 is the direct association rate constant for the CP ↔ transition CP*, koff2 is the inverse dissociation rate constant for the CP ↔ CP* transition.
The model describing the interaction was chosen according to the lowest chi2 parameter’s value. Chi2 is a measure of the average squared residual between the experimental data and the fitted curve.

Neuro-2a cells [5] = test: Cytoprotection against ATP-induced cell death (MTT assay); type: cell-based, mouse; conditions: 4 mM ATP, 48 h
Protocol: (§2) Neuro-2a neuroblastoma cells (ATCC® CCL-131™) were obtained from American Type Culture Collection (Manassas, VA, USA). The cells were cultivated in DMEM medium (BioloT, St. Petersburg, Russia) supplemented with 10% of fetal bovine serum (BioloT, St. Petersburg, Russia) and 1% penicillin/streptomycin (BioloT, St. Petersburg, Russia) at 37 °C and 5% CO2. Initially, cells were incubated in cultural flasks until sub-confluent (~80%). For testing, Neuro-2a cells were seeded in 96-well plates and experiments were started after 24 h.
The cytoprotective effect of peptides was assessed in Neuro-2a cells using the MTT assay. In brief, an aliquot (180μL) of cell suspension with a nominal cell density of 3 × 10^4 cells/well was dispensed into 96-well plates. The cells were incubated for 24 h in a humidified atmosphere containing 5% CO2 to allow cell attachment. At the end of the preincubation period, ATP (Sigma-Aldrich, St. Louis, MO, USA) was added to the cells at a concentration of 4 mM. Studied peptides were added to the cells at concentrations of 0.1, 1.0 or 10.0 μM for 1h prior to the addition of ATP. After incubation for 48 h at 37 °C cell viability was detected using the MTT as described previously. The standard P2X7 inhibitor, A438079 (Sigma-Aldrich, St. Louis, MO, USA), at a concentration of 10 μM was used as a positive control.
(§3) All data were obtained in three independent replicates and calculated values were expressed as mean ± standard error of the mean (SEM). The Student’s t-test was performed using SigmaPlot 14.0 (Systat Software Inc., San Jose, CA, USA) to determine statistical significance.

P2X7 in Neuro-2a cells = test: ATP-induced Ca2+ influx (Fluo-8 AM); type: cell-based, mouse; conditions: 1 mM ATP
Protocol: as §2, §1, §3

[6] = molecular target: T1, hP2X7 (47-334 a.a., extracellular domain, 36.8 kDa) (human); test: SPR; Biacore 3000, hP2X7 extracellular domain amine-coupled to a CM5 chip (12300 RU), peptides 5-100 uM injected as analytes at 10 uL/min for 6 min, 25 °C, HBS-N (10 mM HEPES, 150 mM NaCl, pH 7.4); fitted with 1:1 Langmuir or two-state (conformational change) model; set-up: kon2 (two-state model, step CP to CP*): unit not given here
[7] = tested on: cultured neurons of the dorsal horn of the spinal cord; conditions: cited from earlier work
Source text: Activated P2X7 has also been reported to alter reactive oxygen species (ROS) in microglia/macrophages as was shown, for example, in primary rat microglial cells. In cultured neurons of the dorsal horn of the spinal ...

CC(C)(C)c1cc(O)c(C(C)(C)C)cc1O [BHQ, 2,5,-di(t-butyl) hydroquinone]
[Ca2+]i in Ca-free medium (Neuro-2a cells [1]): led to a significant increase in [Ca^2+]I

HCGS1.19 (peptide)
decrease of the 1 mM ATP-induced rise in intracellular Ca2+ (Fluo-8AM) in mouse Neuro-2a cells with endogenous P2X7, peptide 0.1-1 uM pre-incubated 30 min [2]: 54.8% | 4 mM ATP-induced uptake of YO-PRO-1 by mouse Neuro-2a cells (P2X7 macropore), peptide 0.01-10 uM pre-incubated 10 min; dye uptake reduced to the printed percent [3]: 56.2%

GSICLEPKVVGPCTAYLRRFYFDSETGKCTPFIYGGCEGNGNNFETLRACRAICRA (disulfide 4-54, 13-37, 29-50) [HCGS1.10]
Kd [4]: 26.3 µM | koff ([4]; same value printed under koff1 and koff2, average ± SD): (4.5 ± 0.52) × 10^−3 c^−1 | kon ([4]; same value printed under kon1 and kon2, average ± SD): (1.71 ± 0.19) × 10^2 mole^−1c^−1

HCGS1.36 (peptide)
decrease of the 1 mM ATP-induced rise in intracellular Ca2+ (Fluo-8AM) in mouse Neuro-2a cells with endogenous P2X7, peptide 0.1-1 uM pre-incubated 30 min [2]: 53.9% | 4 mM ATP-induced uptake of YO-PRO-1 by mouse Neuro-2a cells (P2X7 macropore), peptide 0.01-10 uM pre-incubated 10 min; dye uptake reduced to the printed percent [3]: 47.8%

Nc1ncnc2c1ncn2[C@@H]1O[C@H](COP(=O)(O)OP(=O)(O)OP(=O)(O)O)[C@@H](O)[C@H]1O [ATP, adenosine triphosphate, reference compound]
increase in percentage of dead cells vs cells without ATP (Neuro-2a cells [5]): up to 40% | [Ca2+]i response to ATP in Ca2+-free medium (Neuro-2a cells [1]; 1 mM ATP, Ca2+-free medium): did not cause an increase in [Ca^2+]I | intracellular Ca2+ after ATP (P2X7 in Neuro-2a cells): strong sustained increase in [Ca^2+]I

C[C@H](CCC(=O)O)C[C@H](C)C[C@H](C)C(=O)/C=C(\O)[C@H](C)C[C@H](C)C/C=C/[C@@H](C)[C@@H](O)[C@@H](C)[C@@H](O)C[C@@H]1CC[C@@](C)([C@H]2CC[C@@](C)([C@@H](C)O)O2)O1 [ionomycin]
[Ca2+]i in Ca-free medium (Neuro-2a cells [1]): led to a significant increase in [Ca^2+]I

HCGS1.10 (peptide)
decrease of the 1 mM ATP-induced rise in intracellular Ca2+ (Fluo-8AM) in mouse Neuro-2a cells with endogenous P2X7, peptide 0.1-10 uM pre-incubated 30 min; value at 0.1 uM [2]: 43.8%

HCRG1 (peptide)
koff1 (two-state model, step CP to C + P) [6]: 0.0437 c^−1 | koff2 (two-state model, step CP* to CP) [6]: 0.0015 c^−1 | kon1 (two-state model, step C + P to CP) [6]: 920 mole^−1c^−1 | kon2 (two-state model, step CP to CP*) [6]: 0.0085 | decrease of the 1 mM ATP-induced rise in intracellular Ca2+ (Fluo-8AM) in mouse Neuro-2a cells with endogenous P2X7, peptide 0.1-10 uM pre-incubated 30 min; value at 0.1 uM [2]: 57.5%

CC(C)(C)[N+]([O-])=Cc1ccccc1 [N-tert-butyl-α-phenylnitrone]
ATP or Bz-ATP-induced ROS production [7]: eliminated

B1: APHC3 (peptide)
chain: GSICLEPKVVGPCTAYFPRFYFNSETGKCTPFIYGGCEGNGNNFETLRACRGICRA
decrease of the 1 mM ATP-induced rise in intracellular Ca2+ (Fluo-8AM) in mouse Neuro-2a cells with endogenous P2X7, peptide 0.1-10 uM pre-incubated 30 min; value at 0.1 uM [2]: 53.2%
